# Reference: patent US20170240926 (published 2017)
# No end group written: not given here. *: point of attachment. Dansyl = CN(C)c1cccc2c(S(=O)(=O)*)cccc12
# Target: FTase (protein farnesyltransferase) (UniProt P49354)
row,Binder,Kd
1,Dansyl-TKCLIT [dansyl-TKCLIT],4.1 nM
2,Dansyl-TKCTLQ [dansyl-TKCTLQ],7 nM
3,Dansyl-TKCNLQ [dansyl-TKCNLQ],8 nM
4,Dansyl-TKCAVQ [dansyl-TKCAVQ],13 nM
5,Dansyl-TKCSIM [dansyl-TKCSIM],6 nM
6,Dansyl-TKCKIF [dansyl-TKCKIF],2.5 nM
7,Dansyl-TKCIVA [dansyl-TKCIVA],5 nM
8,Dansyl-TKCTMS [dansyl-TKCTMS],6 nM
9,Dansyl-TKCNLT [dansyl-TKCNLT],3.7 nM
10,Dansyl-TKCRIS [dansyl-TKCRIS],12 nM
11,Dansyl-TKCTLA [dansyl-TKCTLA],4.4 nM
12,Dansyl-TKCSVS [dansyl-TKCSVS],2.1 nM
13,Dansyl-TKCYPD [dansyl-TKCYPD],3.3 nM
14,Dansyl-TKCSIS [dansyl-TKCSIS],3.4 nM
15,Dansyl-TKCSLC (cysteine pairing not given here) [dansyl-TKCSLC],5 nM
16,Dansyl-TKCLVM [dansyl-TKCLVM],6 nM
17,Dansyl-TKCGIM [dansyl-TKCGIM],3.6 nM
18,Dansyl-TKCYVM [dansyl-TKCYVM],12 nM

row,Binder,Kd
1,Dansyl-TKCKIS [dansyl-TKCKIS],4 nM
2,Dansyl-TKCSLM [dansyl-TKCSLM],8 nM
3,Dansyl-TKCVLH [dansyl-TKCVLH],14 nM
4,Dansyl-TKCCIF (cysteine pairing not given here) [dansyl-TKCCIF],270 nM
5,Dansyl-TKCTKF [dansyl-TKCTKF],6 nM
6,Dansyl-TKCCIL (cysteine pairing not given here) [dansyl-TKCCIL],300 nM
7,Dansyl-TKCLTS [dansyl-TKCLTS],5 nM
8,Dansyl-TKCLLM [dansyl-TKCLLM],4.7 nM
9,Dansyl-TKCITQ [dansyl-TKCITQ],3.6 nM
10,Dansyl-TKCVVT [dansyl-TKCVVT],7 nM
11,Dansyl-TKCTII [dansyl-TKCTII],4.2 nM
12,Dansyl-TKCVLA [dansyl-TKCVLA],4.6 nM
13,Dansyl-TKCTLM [dansyl-TKCTLM],5.2 nM
14,Dansyl-TKCFLS [dansyl-TKCFLS],19 nM
15,Dansyl-TKCNIM [dansyl-TKCNIM],5 nM
16,Dansyl-TKCSLG [dansyl-TKCSLG],3.4 nM
17,Dansyl-TKCSFM [dansyl-TKCSFM],10 nM
